Assay results taken from article PMC4558368.

Target: Extracellular region of FcγRIIIa (residues 19-193, V158 allotype) (UniProt P08637)
Experiment: SPR

Kd [µM] | Substance
> 50 | Human IgG1 Fc D265A (glycosylated variant) (domain or fragment)
> 50 | Human IgG1 Fc T299A (aglycosylated variant) (domain or fragment)
